Article PMC4887207, “Viral hijacking of a replicative helicase loader and its implications for helicase loading control and phage replication” (eLife, 2016)

Experiments:
[1] = molecular target: SeMet-SaDnaI^AAA+ (Staphylococcus aureus) (UniProt Q3ZUA6); experiment: crystal structure; ADP•BeF3-bound SaDnaI^AAA+•77ORF104 complex, SeMet SAD, 1.9 Å; complex formed with two-fold excess of 77ORF104
[2] = molecular target: SaDnaI^AAA+ (residues 136-306) (Staphylococcus aureus) (UniProt Q3ZUA6); experiment: fluorescence polarisation; anisotropy-based competition; 20 nM labeled 77ORF104 and 2 µM SaDnaI^AAA+, unlabeled 77ORF104 or mutant titrated; 50 mM HEPES-KOH pH 7.5, 125 mM KCl, 10% glycerol, 5 mM MgCl2, 1 mM DTT; apparent
[3] = molecular target: SaDnaI^AAA+ (residues 136-306) (UniProt Q3ZUA6); experiment: competition-based fluorescence anisotropy assay; conditions: read at the highest unlabeled competitor concentration (last point, just beyond the 10 µM tick); the competitor displaces N-terminally labeled wild-type …; parent: est. 20; read off a plot
[4] = molecular target: N-terminally labeled, wild-type 77ORF104 (Staphylococcus bacteriophage 77); experiment: fluorescence polarisation; fluorescence anisotropy; 20 nM N-terminally AlexaFluor 488-labeled 77ORF104, unlabeled protein titrated in 2-fold steps; 50 mM HEPES-KOH pH 7.5, 125 mM KCl, 10% glycerol, 5 mM MgCl2, 1 mM DTT; single-site fit; apparent
[5] = molecular target: the molecule itself; experiment: SEC; analytical gel filtration, 5/150 GL Superdex 200; 20 mM Tris-HCl pH 8.0, 200 mM NaCl, 5% glycerol, 5 mM MgCl2, 1 mM BME, 10 mM ATP; 7 µM SaDnaC, 14 µM SaDnaI, 14 µM 77ORF013, 30 µM 77ORF104; peak fractions on SDS-PAGE
[6] = molecular target: the molecule itself; experiment: centrifugal pelleting assay; 90 µM SaDnaI with or without 180 µM 77ORF104, 20 min on ice, 14,000 x g 1 min; 20 mM HEPES-KOH pH 7.5, 100 mM NaCl, 10% glycerol, 5 mM MgCl2, 6 mM ATP; SDS-PAGE of pellet and supernatant

Work on phage 77 ORF104 protein yielded a stoichiometry N [1] of 1.

“phage 77 ORF104 protein (natural protein)” gave a Ki [2] of 1620 nM.

phage 77 ORF104 protein K39E gave a response [3] of 26 mA.

phage 77 ORF104 protein Y17E was tested, and the response [3] was 57 mA.

B1: SaDnaI^AAA+ (residues 136-306) (domain or fragment)
chain: DRLDVAMAADDICTAITNGEQVKGLYLYGPFGTGKSFILGAIANQLKSKKVRSTIIYLPEFIRTLKGGFKDGSFEKKLHRVREANILMLDDIGAEEVTPWVRDEVIGPLLHYRMVHELPTFFSSNFDYSELEHHLAMTRDGEEKTKAARIIERVKSLSTPYFLSGENFRNN
In the case of B1, the Kd [4] is reported as 49 nM.

B2: SaDnaC replicative helicase (natural protein, Staphylococcus aureus, UniProt Q9AQH7 1-466, looked up)
chain: MDRMYEQNQMPHNNEAEQSVLGSIIIDPELINTTQEVLLPESFYRGAHQHIFRAMMHLNEDNKEIDVVTLMDQLSTEGTLNEAGGPQYLAELSTNVPTTRNVQYYTDIVSKHALKRRLIQTADSIANDGYNDELELDAILSDAERRILELSSSRESDGFKDIRDVLGQVYETAEELDQNSGQTPGIPTGYRDLDQMTAGFNRNDLIILAARPSVGKTAFALNIAQKVATHEDMYTVGIFSLEMGADQLATRMICSSGNVDSNRLRTGTMTEEDWSRFTIAVGKLSRTKIFIDDTPGIRINDLRSKCRRLKQEHGLDMIVIDYLQLIQGSGSRASDNRQQEVSEISRTLKALARELKCPVIALSQLSRGVEQRQDKRPMMSDIRESGSIEQDADIVAFLYRDDYYNRGGDEDDDDDGGFEPQTNDENGEIEIIIAKQRNGPTGTVKLHFMKQYNKFTDIDYAHADMM
notes: Staphylococcus aureus replicative helicase DnaC (a DnaB-family helicase); also called S. aureus DnaC replicative helicase; host helicase; not shown: His6, N-terminal, cleaved; MBP, N-terminal, cleaved
With B2 the “stoichiometry N” value [5] was 2.

B3: full-length Staphylococcus aureus DnaI (natural protein, UniProt Q3ZUA6 1-306, looked up)
chain: MKQFKSIINTSQDFEKRIEKIKKEVINDPDVKQFLEAHRAELTNAMIDEDLNVLQEYKDQQKHYDGHKFADCPNFVKGHVPELYVDNNRIKIRYLQCPCKIKYDEERFEAELITSHHMQRDTLNAKLKDIYMNHRDRLDVAMAADDICTAITNGEQVKGLYLYGPFGTGKSFILGAIANQLKSKKVRSTIIYLPEFIRTLKGGFKDGSFEKKLHRVREANILMLDDIGAEEVTPWVRDEVIGPLLHYRMVHELPTFFSSNFDYSELEHHLAMTRDGEEKTKAARIIERVKSLSTPYFLSGENFRNN
notes: Staphylococcus aureus helicase loader DnaI, residues 1-306 by the limits of the domain constructs; Residues 136-306 are in PDB 5HE8 and 5HE9; also called SaDnaI; FL SaDnaI; not shown: His6, N-terminal, cleaved; MBP, N-terminal, cleaved
B3: binds [6].
